# What was measured:
# [1] = biological target: plasmin (Homo sapiens, UniProt P00747); conditions: literature report; cited from earlier work
# [2] = test system: trypsin; conditions: literature report; cited from earlier work
# [3] = test system: kallikrein; conditions: literature report; cited from earlier work
# [4] = biological target: T1, Human trypsin (Homo sapiens, UniProt P07477); experiment: Human trypsin-inhibiting activity, substrate S-2444; assay type: biochemical; conditions: purified products, concentration as U/ml bovine trypsin-inhibiting activity based on UTI
# T1 construct: purchased Calbiochem
# Method: The purified sample obtained in Example 1-(5) was dissolved in 100 μl of distilled water. Concentration of this solution was determined based on its bovine trypsin-inhibiting activity using the aforementioned UTI as a standard. The solution was then diluted to various concentration levels with 0.1% BSA/0.2M triethanolamine-HCl buffer (pH 7.8) for the activity measurement. The aforementioned UTI was also diluted in the same manner.
# Using the aforementioned synthetic compound S-2444 as a substrate, human trypsin-inhibiting activities of the diluted test samples and the positive control were measured in accordance with the method of Kassell (Kassell B., Methods in Enzymol., vol 19, pp.84-852, 1970) as follows.
# Human trypsin (Calbiochem) was dissolved in 0.001M HCl to a concentration of 1,000 SU/ml and the solution was further diluted with 0.1% BSA/0.2M triethanolamine-HCl buffer (pH 7.8) to prepare 1.25 SU/ml of trypsin solution. 2 mM solution of S-2444 was prepared by dissolving it in distilled water.
# Next, 100 μl of the test sample or positive control was mixed with 100 μl of the trypsin solution. After incubation at 37° C. for 10 minutes, 50 μl of the S-2444 solution was added to the mixture to start the reaction. The reaction was carried out at 37° C. for 20 minutes and then stopped by adding 50 μl of 50% acetic acid solution to the reaction mixture. Thereafter, absorbance at 405 nm was measured using a spectrophotometer.
# In this instance, in order to eliminate absorbance of various solutions in the reaction mixture, a blank solution was prepared by mixing 100 μl of the trypsin solution with 50 μl of 50% acetic acid and then with 100 μl of each test sample or the positive control and with 50 μl of the S-2444 solution.
# In this figure, human trypsin remaining activity was expressed by percentage based on the absorbance of a control reaction mixture in which 100 μl of 0.1% BSA/0.2M triethanolamine-HCl buffer (pH 7.8) was used instead of the test sample or the positive control.
# [5] = biological target: FXa (Homo sapiens, UniProt P00742); experiment: Human FXa-inhibiting activity, substrate S-2222; assay type: biochemical; set-up: purchased American Diagnostica Inc; conditions: purified products, FIG. 25 and FIG. 26
# Chain of FXa (P00742 235-488 limits assumed): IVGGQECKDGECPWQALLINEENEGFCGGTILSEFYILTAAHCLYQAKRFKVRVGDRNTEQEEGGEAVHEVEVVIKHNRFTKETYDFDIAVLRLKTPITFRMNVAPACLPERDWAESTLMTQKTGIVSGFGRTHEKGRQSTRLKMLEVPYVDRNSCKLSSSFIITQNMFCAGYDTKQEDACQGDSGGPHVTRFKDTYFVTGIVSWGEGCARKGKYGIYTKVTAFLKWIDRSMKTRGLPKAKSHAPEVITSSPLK
# Chain of FXa (P00742 41-179 partner limits assumed): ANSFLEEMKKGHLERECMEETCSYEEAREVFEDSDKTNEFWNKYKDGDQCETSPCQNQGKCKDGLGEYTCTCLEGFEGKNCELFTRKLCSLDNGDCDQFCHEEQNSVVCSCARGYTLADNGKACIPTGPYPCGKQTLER
# Method: The purified sample obtained in Example 1-(5) was dissolved in 100 μl of distilled water. Concentration of this solution was determined based on its bovine trypsin-inhibiting activity using the aforementioned UTI as a standard. The solution was then diluted to various concentration levels with 0.1% BSA/150 mM NaCl/5 mM CaCl2 /50 mM Tris-HCl buffer (pH 8.3) for use in the activity measurement. The UTI was also diluted in the same manner. Using a synthetic compound S-2222 (Daiichi Pure Chemicals Co., Ltd.) as a substrate, human FXa-inhibiting activities of the diluted test samples and the positive control were measured in accordance with the method of Ohno et al. (Ohno,H. et al., Thromb. Res., vol.19, pp.579-588, 1980) as follows.
# Human FXa (American Diagnostica Inc.) was dissolved in distilled water to a concentration of 10 PEU/ml and the solution was further diluted with 0.1% BSA/150 mM NaCl/5 mM CaCl2 /50 mM Tris-HCl buffer (pH 8.3) to prepare 0.1 PEU/ml of FXa solution. 4 mM solution of S-2222 was prepared by dissolving it in distilled water and the solution was further diluted with 0.1% BSA/150 mM NaCl/5 MM CaCl2 /50 mM Tris-HCl buffer (pH 8.3) to obtain 2 mM solution of S-2222.
# Next, 25 μl of the test sample or positive control was mixed with 100 μl of 0.1% BSA/150 mM NaCl/5 mM CaCl2 /50 mM Tris-HCl buffer (pH 8.3) and 25 μl of the FXa solution. After incubation at 37° C. for 10 minutes, 100 μl of the S-2222 solution was added to the mixture to start the reaction. The reaction was carried out at 37° C. for 30 minutes and then stopped by adding 50 μl of 50% acetic acid solution to the reaction mixture. Thereafter, absorbance at 405 nm was measured using a spectrophotometer.
# In this instance, in order to eliminate absorbance of various solutions in the reaction mixture, a blank solution was prepared by mixing 25 μl of the FXa solution with 50 μl of 50% acetic acid and then with 25 μl of each test sample or the positive control, 100 μl of 0.1% BSA/150 mM NaCl/5 mM CaCl2 /50 mM Tris-HCl buffer (pH 8.3) and with 100 μl of the S-2222 solution.
# In this figure, human FXa remaining activity was expressed by percentage based on the absorbance of a control reaction mixture in which 25 μl of 0.1% BSA/150 mM NaCl/5 mM CaCl2 /50 mM Tris-HCl buffer (pH 8.3) was used instead of the test sample or the positive control.
# Chain of plasmin (P00747 581-810 limits assumed, species assumed): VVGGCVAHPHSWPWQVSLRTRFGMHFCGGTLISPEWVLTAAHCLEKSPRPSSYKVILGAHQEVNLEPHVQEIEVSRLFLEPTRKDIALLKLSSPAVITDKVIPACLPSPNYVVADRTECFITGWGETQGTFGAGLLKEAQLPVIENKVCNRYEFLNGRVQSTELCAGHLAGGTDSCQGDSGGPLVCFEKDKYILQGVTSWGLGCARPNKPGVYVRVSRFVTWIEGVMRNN
# Chain of plasmin (P00747 97-580 partner limits assumed, species assumed): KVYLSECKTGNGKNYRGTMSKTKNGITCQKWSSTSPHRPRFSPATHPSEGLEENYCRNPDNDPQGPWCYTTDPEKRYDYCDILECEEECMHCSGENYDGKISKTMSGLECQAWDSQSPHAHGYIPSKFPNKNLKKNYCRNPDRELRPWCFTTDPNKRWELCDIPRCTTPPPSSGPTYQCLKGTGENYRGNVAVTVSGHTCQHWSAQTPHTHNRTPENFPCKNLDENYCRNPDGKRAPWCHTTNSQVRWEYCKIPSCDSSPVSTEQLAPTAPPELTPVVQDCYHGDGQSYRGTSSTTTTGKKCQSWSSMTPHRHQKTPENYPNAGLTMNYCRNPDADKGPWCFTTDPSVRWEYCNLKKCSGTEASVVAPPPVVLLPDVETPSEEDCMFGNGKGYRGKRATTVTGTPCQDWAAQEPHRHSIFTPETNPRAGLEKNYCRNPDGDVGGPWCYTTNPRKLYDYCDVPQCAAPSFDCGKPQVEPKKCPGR
human trypsin-inhibiting activity compared with polypeptides TN70 and TL66 [4],human FXa-inhibiting activity relative to polypeptide TN70 [5],Molecule,inhibition of plasmin [1],inhibition of trypsin [2],inhibition of kallikrein [3]
,,aprotinin [reference compound],inhibits,inhibits,inhibits
almost the same,about 7 times,"Y46E: polypeptide defined by the amino acid sequence of formula 5, purified from culture supernatant of E. coli JE5505 (pM575B) (protein) TVAACNLPIVRGPCRAFIQLWAFDAVKGKCVLFPYGGCQGNGNKFESEKECREYCGVPGDGDEELLRFSN",,,
almost the same,about 5 times,"Q19K: polypeptide defined by the amino acid sequence of formula 6, purified from culture supernatant of E. coli JE5505 (pM576) (protein) DDAACNLPIVRGPCRAFIKLWAFDAVKGKCVLFPYGGCQGNGNKFYSEKECREYCGVPGDGDEELLRFSN",,,

# — patent US5792629A, “Isolated DNA encoding novel protease inhibitory polypeptide” (Mochida Pharmaceutical Co., Ltd., priority 1990, dated 1998)
